Experimental data taken from PMC9574498.
Values joined by “and” are separate entries in the source; they are usually repeats but may differ in a detail not shown here. Equal entries are not always repeated.

Target: human P2X7R ballast domain (P2X7BD, residues 395–595) (human) (UniProt Q99572)
Experiment: cross-linking

human P2X7R ballast domain (P2X7BD, residues 395–595) (human), sequence (Q99572 395-595): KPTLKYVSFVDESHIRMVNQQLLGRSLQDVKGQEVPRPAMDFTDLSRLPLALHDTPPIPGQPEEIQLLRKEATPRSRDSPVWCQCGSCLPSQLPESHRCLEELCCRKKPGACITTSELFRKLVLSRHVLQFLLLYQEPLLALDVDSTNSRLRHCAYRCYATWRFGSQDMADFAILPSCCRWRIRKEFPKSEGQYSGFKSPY

stoichiometry N (Ca^2+-CaM per P2X7BD): 1 and 2
Substance: human calmodulin (Ca^2+-CaM; apo-CaM in EDTA) (from UniProt P0DP23 1-149) (natural protein)
